# Experimental data published in article PMC11193720.
# What was measured:
# [1] = target: VZV glycoprotein C gC_(S147-V531) (varicella zoster virus, Dumas strain); assay: SPR + other: grating-coupled interferometry (GCI)
# [2] = target: VZV glycoprotein C gC_(Y419-S523) (varicella zoster virus, Dumas strain); assay: SPR + other: grating-coupled interferometry (GCI)
# [3] = target: VZV glycoprotein C gC_(Y322-S523) (varicella zoster virus, Dumas strain); assay: SPR + other: grating-coupled interferometry (GCI)
# [4] = target: VZV glycoprotein C gC_(S147-V531) (varicella zoster virus, Dumas strain)
# [5] = target: VZV glycoprotein C construct gC Y419-S523 (varicella zoster virus (Dumas strain)); assay: SPR
# VZV glycoprotein C construct gC Y419-S523 (varicella zoster virus (Dumas strain)), sequence (P09256 450-554 limits assumed): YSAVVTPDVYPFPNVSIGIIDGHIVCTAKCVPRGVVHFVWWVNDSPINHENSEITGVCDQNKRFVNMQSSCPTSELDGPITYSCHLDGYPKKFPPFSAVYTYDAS
# VZV glycoprotein C gC_(S147-V531) (varicella zoster virus, Dumas strain), sequence (P09256 178-562 limits assumed): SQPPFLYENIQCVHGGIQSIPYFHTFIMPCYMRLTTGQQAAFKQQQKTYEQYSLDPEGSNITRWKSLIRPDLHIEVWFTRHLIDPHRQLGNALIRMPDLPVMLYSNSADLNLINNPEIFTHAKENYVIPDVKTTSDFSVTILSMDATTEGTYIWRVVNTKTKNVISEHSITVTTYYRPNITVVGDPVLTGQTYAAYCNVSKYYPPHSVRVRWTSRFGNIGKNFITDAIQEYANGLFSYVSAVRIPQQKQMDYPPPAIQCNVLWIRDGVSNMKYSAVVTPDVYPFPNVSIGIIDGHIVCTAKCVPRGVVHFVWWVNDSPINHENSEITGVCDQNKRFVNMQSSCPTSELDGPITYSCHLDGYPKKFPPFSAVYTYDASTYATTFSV
# VZV glycoprotein C gC_(Y322-S523) (varicella zoster virus, Dumas strain), sequence (P09256 353-554 limits assumed): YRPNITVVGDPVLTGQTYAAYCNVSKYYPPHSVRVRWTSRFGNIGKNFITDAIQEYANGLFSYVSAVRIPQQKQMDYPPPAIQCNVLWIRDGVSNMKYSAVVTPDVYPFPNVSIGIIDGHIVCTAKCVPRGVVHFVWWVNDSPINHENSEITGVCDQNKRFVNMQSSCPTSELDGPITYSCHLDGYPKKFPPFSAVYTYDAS
# VZV glycoprotein C gC_(Y419-S523) (varicella zoster virus, Dumas strain), sequence (P09256 450-554 limits assumed): as the sequence (P09256 450-554 limits assumed) above
substance,measurement,setting,value
interferon-gamma (IFN-γ) (from UniProt P01579 24-161) (ligand),"off-rate of the transient interaction (Kd1), heterogenous ligand fit",[1],0.04 s⁻¹
same,koff,[2],0.02 s⁻¹
same,"off-rate of the transient interaction (Kd1), heterogenous ligand fit",[3],0.04 s⁻¹
same,"adhesion of Jurkat cells to HaCaT cells stimulated with 5 ng/mL IFN-γ and 300 nM gC construct, fold against IFN-γ alone",[4],2.7 fold
same,Kd,[5],18 nM
same,koff,[5],0.0244 s⁻¹
same,kon,[5],1.35e+06 M⁻¹ s⁻¹
